{"source": "the DeepSol protein solubility set"}
{"experiment": "soluble on expression in E. coli; label from the status in PepcDB or PDB records"}
{"sequence": "MSLNGDNQQILREIVLNPTIHGKELESIFGLSRRQLGYRIQKINLWLEQEGYPKLERTSQGNFIVSSEIMTLFKRDVSEQQMLNGNNVIFSIETRRYYLMLMLFSKENAMSLNHFSIDLQVSKNTVIHDINHVKEQLENHGLSLKYSRKHGYEIVGDEFEVRRFFIKLIDQRLNHDITKSEVLKALNLTFEDIAYQKDKIKQVEQFLKSRFIDKSLSSLPYVLCVIRRRIQSGHVMNPLNINYQYLRDTKEYQATEIMTQHEPDLPEAEKLYLTLHLLSTSVQWTDLQESDSISNLTMAIAQMIHHFEQITFINIEDKEKLSQQLLLHLTPAFYRIKYNLTDRDELINPLQGNYQSLFHMVKQSCQSLTEYFGKSLPDNEIAYLTMLFGGSLRREGHHHHHH", "soluble on expression in E. coli": "soluble"}
{"sequence": "MGSDKIHHHHHHEETRTEVEKKNYMNNAEEAKDVLLGVYRTNTLDAMYGYYLSILFNLGTDISQVEGSGNENFRIIPTNSFPTTQSEVQQTWAALYTGIYRANDFLERISNKIGSYTTTDKKLATLYIAEARALRGMFYFELVRRFGNVVLMTSTQMSNQNPATYVQSAPEKVYEYIEDDLLYACDILPYATDDQYRESNDYRFSKGAALGLLTKVYATWAGYPVKDESKWEAAAKTARILVESGKHGLLKDYEQLWKNTCNGTWDPTESLIEISFYSPTVSGNSDPVGRIGKWNGVKTTAIAGVRGSCAANVKVVHTFVLDWREDVSDIRRDLSIANYQYTDTKKSLWVAGASDTDESAAEKDADPTKAQKNKQNYTPAKWDIQKYVTTNSFINNDKSNVNWYFLRYADVLLLYAEALNEWKHGPDAEAYNAINAVRRRGYGNPSNTSACDLPQGLDETSFREAVRKERSYELSFEGHRRQDLIRWGIYYKTVQATAKELGYWWEGTGSPNYSVATYTEEGKHELFPIPQRDMDLCIQFNQNPKW", "soluble on expression in E. coli": "not soluble"}
{"sequence": "MSLAEQESLALFDDTTEELFMKGTMLSTIFYNAENLFSVVRILVKETNADWDEKDIIVTGFFPALHEQEVYTFYGKMQEHAKFGQQFKADRFRKEMPQSRAGLINYLSGELFKGIGKVTAENIVDTIGDDAITKILSDPSLLNTVPKLPSGAAESLLASLRENQGLEHVMVGLNEYGFGPQLSMKIFQAYKQNAIEVLENNPYKLIEDVKGIGFQRADELGRKLGLGGNHPERLRAGILFMLDSVCMQQGHVYMEQEVLLGEVTYLLEESEGIRIDQSILVAQVEKLAEEQKIITENTRVYMPSLYYSESGFAYHVKRMLKQTEYQEQFPQSEFLLALGELEERIGVHYGDSQRQALEQALMSPMLVLTGGPGTGKTTVIKGIVELYAELNGVSLDPHAYKDGATFPVLLAAPTGRAAKRMSESTGLPAMTIHRLLGMNGQEQMDDDAERLIDGRLLIVDEMSMVDIWLANQLFRALPAHMQVVLVGDQDQLPSVGPGQVLKDILQSEQIPTVALSDIYRQKDGSSIIEMAHYIKEGMLPADFTKNSADRSFFHCTVNQIGDVVEQVVKNAKNKGFRAKDIQVLAPMYRGPAGIDILNKKLQEIFNPNDTGRRKEVQFGDIKYRVHDKVLQLINQPEKNVFNGDIGEIVSIIYAKENTEKQDLIVVQFDQTEVSYYRQEFNQLTHAYCCSIHKAQGSEFPIVIMPIVRSYYRMLRRDLLYTGVTRSKQFLILCGEEEAFRMGIERIDENKRNTTLSERLMSEDVLLEQMTNKRILTAENITEIDPMIGMEGITPEQFMVGEGHHHHHH", "soluble on expression in E. coli": "soluble"}
{"sequence": "MAEWCADHLRNCEGWKSAGLELSTTSDENAKWLDACIRQLVSWSDCTSLGGFHTSIEKLVASDPEAIMARTFLVGLSGLGTEAAARNVEFAKKMDQLEIDAEKYGNAREKRHAKAAILWGRGKHHEAAIEWDKLLDDYPTDLIAVKFSHDAHFFNGNQIGKKNAIEKVIHKWNADLPCYSYLHGMYAFGLEECGIYDDAETQADRALQLNRFDCWASHAKAHVLEMNGRHKEGKEFMYKTEDDWRQGWMLASHNYWHTALFHIEYAEYESALGIFDREIANRFNKTNSLLDMVDASSLLWRLELEGVNVGRDRWRKIEHLSKFIDNHSIVFNDVHLGLAIYRQEDLETEKKLRNSLEKYSSLLSEDNAQISKTIGMPLYDGMLDFARCDYDTAAETMYPIRDKVVQIGGSHAQRDLFVQTLIQSCILSKDPKNWALTPELLVERETLKHDSLLGQRLADKFRALHPL", "soluble on expression in E. coli": "not soluble"}
{"sequence": "MPLEASELKPTAGPLEASELKPTAGPLEASELKPTAGPLEASELKPTAGPLEASELKPTAGPLEASELKPTAGPLEASELKPTAGMFKNAKEFVQYANKLKTLREKKLNGVSIYVCVGTGCTAKGALKVYSAFEEELKKRNLLGQVTLEKIDDDKVTLNRTGCCGRCSSGPLVKIMPYRFFYSNVAPEDVPEIVDRTVLKGEPIERLFLTDPLTGEKVPRIEDTTLFKNQDFYIMEAIGESECDSIEDYIARSGYESLVKALTSMTPEEIIETVKASGLRGRGGGGFPTGLKWEFTRKAQGDIKFVVCNGDEGDPGAFMNRTLLERDPHLVLEGMIIAGYAVGAQKGYAYIRAEYPFAVKMFKKAIEDARKLGLLGENILGTGFSFDLEVKEGAGAFVCGEETALLASIEGKRGMPRPKPPFPAQSGLWGKPTLINNVETYANIPRILRDGVENYRKRGTENSPGTKMFSVAGPLKATGIIEVEFGTTLRDIIYNICGGFVEGEEFKAVQIGGPSGACLSEDFIDMPLDYDTLKKADAMVGSGGIVVITKKTCMVEVARFFLDFTKRESCGKCVPCREGTMQAYNILEKFTHGKATYEDLKTLEHLSKTIKTASLCGLGKTAPNPILSTLKLFREEYIAHIEGECPSGMCTAFKKYVINPDICKGCGLCARSCPQNAITGERGKPYTIDQEKCVKCGLCASKCPFKAIELVAAALEHHHHHH", "soluble on expression in E. coli": "not soluble"}
{"sequence": "CRYVARNGFQGVIVQCETSDGDDIPAEDDREGPPLSRGVFYNDGYDERQGKLILGIFPTGQCPSPIGNGSGTATDVTGEPEKTFSGRGFGRTSPTGMMSSLGAQREMTGLYDLPTTNGNDGEKPADPNGEGRGFTNKNAGTSCTEANAHT", "soluble on expression in E. coli": "soluble"}
{"sequence": "MTETEQTTAPIYPLKRNWTWWYLNDERNKSWEDRLKKVYTFNTVSEFWALYDAIRPPSGLNALCDYNVFRDDIQPMWEVPENSNGGRWLIVIDKGKTPEMVDAIWLEILMALVGEQFGKDMESICGLVCNVRGKGSKISVWTKDCNDDETNMRIGVVLKEKLMAASKDHSKPLFDVIRYEDHESCQKKTSSVVKAKLSLHSSDAPVAEKSAV", "soluble on expression in E. coli": "not soluble"}
{"sequence": "MKTLTTERLILRLVSVDDAPFILELYNHPDFYRFVGDKQMRTDYEAVRYIKENMLRMEEKKGVSLLVVEDKQTKQPLGICGLVKRDTLNAYDIGYGFLPSAYGQGFAIEAAKAVIEYAKQAMQLSQLLAITNNDNIRSISLLKKLGFEFEHVEQQYDNGRTLELYTLQL", "soluble on expression in E. coli": "not soluble"}
{"sequence": "MSIMKTADRPHAMNRRQDAIFLEVFWARVRSIADEAAKLIVRTSFSTLSTEANDFTVVVTDSAGRCLTENSGSIPAFIGTLPATVQAVIAKYPHHTLRPGDVFITNDPWIGTGHLNDVCLVKPVFHLGKVVAFAATAGHVPDIGGRFRSVNAHELFEEGLQIPVIRLLDQGAPNEAILDMIRTNVRTPDQTAGDIWSQASAVELVARRLGEVLVEYALPGVDDIAEALFERGDRALRKAISALPDGQYRYAMQTDGFEQRLDLAVTVRIEGDAITCDFTGTSPQQPRAINCPLGYTTAMAVYAIKCLLVPDIPNSDGMLRAIRVEAPEHSLLNPARPAAVGGRASTGHYLPVLIFGAMHAVLPERVMAGAGSPLWSANISGTGADGLPMATVLFFNGGMGATCGKDGAAVMSWPSNISPTPVEVAERDIPLFFRYKRLRVDSGGPGQWRGGLGEEVCMVSRHDRPLSVVFLAERTREPAPGLGGGQAGVPGAVWINGVAVDVRERHLLNPGDELVMRTPGGGGFGPPGQRDPALADHDYRLGYSAAPGTARQS", "soluble on expression in E. coli": "not soluble"}
{"sequence": "MNINEPSVSIIMATYNSEKFLRETLDSICCQTYGNWELIITDDSSTDNTSDILRDYSERYNNIFYSINEVNQGAAISRNKCISQAKGMYIAFIDSDDLWAHNKLEKHIHFIAEHNSAISFTSYELMNENGIPLGKYVDANIPPVLTYNDMLRKKATIGCSTVILSSKLVGEFKMPLLRTGQDYATWLLLLKKVEVAHHFPKVLTKYRVCKNSISRNKFKKAKRQWQIYREVEKLPFYESIVCFCFYAWRAVFRK", "soluble on expression in E. coli": "not soluble"}
{"sequence": "MAHHHHHHMSSDDECPELISARVPVTVLTGFLGSGKTTLLHYILSADHDMRIAVIVNEFEFGKTIEKGLTLKSSEKPDDEWLELNNGCMCCTAQTQTVKALESLMEHRGTFDLILVETSGLADPGPIAAMFWQDLPLCGHLYLSGIVTLVDAVNICRYLDDEDVMREAERQILMADKVVLNKCDIATEAQQKAALAAVREINPVATVIPSDHSRVPNLRDILFIDTTRAATELVHLHEHHHSSISAVSLEFFEAERAFAVSSYRDVHAIGSDLLYRCGDYGFEVVRCKAAIWCCEDGQYRLLQLQSIGDLFDVTPMVGQSVPFGCTRALVLGKQLDEVKLRDIFAKYLKATK", "soluble on expression in E. coli": "not soluble"}
{"sequence": "MGHHHHHHSGEVKPEVKPETHINLKVSDGSSEIFFKIKKTTPLRRLMEAFAKRQGKEMDSLRFLYDGIRIQADQTPEDLDMEDNDIIEAHREQIGGMRTYLDLLQHVLDHGVDRDDRTGTGTRSVFGYQMRFDLEEGFPVLTTKKLHLRSIIHELLWFLKGDTNIAYLKENGVTIWDEWADENGDLGPVYGYQWRSWPAPDGRHIDQIANLLKMLHTNPQSRRLIVSAWNPALVDEMALPPCHCLFQFYVANGRLSCQLYQRSADIFLGVPFNIASYALLTMMIAQVTGLKPGEFIHTLGDAHIYSNHFEQARLQLTRTPKKLPVMHINPDVKDLFAFRFEDFRLDGYEADPTIKAPIAV", "soluble on expression in E. coli": "soluble"}
{"sequence": "MVTLEDMSQYLDEFLADARDRIDSLSNAILTLEKIVKEGGSEEEKTELINQIFRDAHTLKGTAATMGFMKLSETAHKMENIFDAIRNSQLELTPELVDLVLDFLDAIDAMVNNIEESGNEGDVDVSDLFERADEFLGGSKKEIKPEEKPKEAEKKEEKVAEEVPSAEGKVYYIKVKFQKDAPLKGVRAFLILSDLEERGEVIWTNPGREIIENGNLEGDVVEFRIVSETPKEELETVIKRHPEVESVEIVEEKKKEEAGEKAVEGKEYVVRVYFQPDTPLKGPRSYLILNDLEKIGEILSTNPSRQDIEEGNLIENKFFEVVLRTSESKEKISEILKKHPDVLNFTITEKEEEKKEEKKEAKKQPPKQPKKPPIIETPKVKISRVIKIDVGHLDKLMNLVGELVITKGRLEQIGERLGDRELFEALSTLSRLLTELQDEIMEMRLTPIAEVFNKFPRMVRDLARKMGKEVEFVMEGADIEVDRTILEKLGDALVHLLRNAVDHGIEPPEERVKLGKPRAGRVELIAKREKNHVVIIVRDDGRGIDPEKVKRKAVERGLITPEEAANLSDEEAINLIFLPGFSTADKVTDVSGRGVGMDVVKEVVKSMNGSISVQTEVGKGTTFILKLPISMAIIQALLIRVEDETYAIPINNILETIEVDPSILKTVGGKPVIVLRGEIIPVIMLHELFGLPAPQVDRFPAIIVDHGAQKVAIGVDELLHKRDIVIKSLGKFLSNVRGFAGATILGDGSVVLIIDIGGLLGGGYSG", "soluble on expression in E. coli": "soluble"}
{"sequence": "MRLEGLTIGVGFTGSFCTYDKIFIELENLVKEGANVHTIFSDVSQNIDCRFGNSEEFMKKAYELTGNKPIVTIEEAEPFGPKGIADIIIIAPCTGNTAAKLANGITDSPVLMAAKGHLRNDKPLVISISTNDALSFNFKNIGILLNSKNIYFVPFGQDNCKAKPNSMIAHTELIIPTIELALENKQLQPVIKSPHQLEHHHHHH", "soluble on expression in E. coli": "soluble"}
{"sequence": "MRGSHHHHHHTDPALRAQTQVLFEHPLNEKMRTWLRIEFLIQQLTVNLPIVDHAGALHFFRNVSELLDVFERGEVRTELLKELDRQQRKLQTWIGVPGVDQSRIEALIQQLKAAGSVLISAPRIGQFLREDRLIALVRQRLSIPGGCCSFDLPTLHIWLHLPQAQRDSQVETWIASLNPLTQALTMVLDLIRQSAPFRKQTSLNGFYQDNGGDADLLRLNLSLDSQLYPQISGHKSRFAIRFMPLDTENGQVPERLDFELACCGLCGR", "soluble on expression in E. coli": "soluble"}
